{"source": "the DeepSol protein solubility set"}
{"experiment": "soluble on expression in E. coli; label from the status in PepcDB or PDB records"}
{"sequence": "MVLFMLSESKKKATNWEQITKKHGSVQCVKGCCCYSLIISFMKPKEKKDFVLFCLSSVVTCCRPIQIPSRQEKKGKFLCFFLLVLIR", "soluble on expression in E. coli": "soluble"}
{"sequence": "MVLKTVALVGNPNVGKTTIFNALTGLRQHVGNWPGVTVEKKEGIMEYREKEFLVVDLPGIYSLTAHSIDELIARNFILDGNADVIVDIVDSTCLMRNLFLTLELFEMEVKNIILVLNKFDLLKKKGAKIDIKKMRKELGVPVIPTNAKKGEGVEELKRMIALMAEGKVTTNPIIPRYDEDIEREIKHISELLRGTPLAEKYPIRWLALKLLQRDEEVIKLVLKYLGQEKMDEILKHISELEEKYKRPLDIVIASQKYEFLEQLLRKFVVHE", "soluble on expression in E. coli": "soluble"}
{"sequence": "MVLPLSLLKTAQNHPMLVELKNGETYNGHLKACDSWMNIHLVDVIFTSKDGDKFFKMSEAYVRGSTIKYLRIPETVVDLVKTEVNEVRRQQQREQSRGRGGGRGGRGGHRGGGGNRGGRGGAR", "soluble on expression in E. coli": "not soluble"}
{"sequence": "MVLRRDFLTWCNETLQTALFKDYAPNGLQVEGREYIGKIVTSVTASRAAIDFAVEQKADLLLVHHGMFWKNELPTVTGWKKERIAALLRHDINMAGYHLPLDAHPTLGNNAQLADRLGFATEKRFGEQNLLNSGSLKQAKTLGALAAHIETVLQRKPVVIGKPEREIRRVAWCSGGAQGFFQTAIDEGVDLYLTGEISEAQYHLANETGTAFISAGHHATERYGVRALAESAAEVFGLEVCHFDENNPALEHHHHHH", "soluble on expression in E. coli": "soluble"}
{"sequence": "MVMHIKQSTVRSMLIVARRGKKRLNLDPDALAVLTALINLLAQESVARAAQSAANTGSRHVTKEHLKRVIAQLMLDFAI", "soluble on expression in E. coli": "not soluble"}
{"sequence": "MVMSIEASCHCGETVFEVTEAPSSVTRCTCSLCAKRGSLWAYYKPAQFRLLSPPENVTTYLWGSRTVKHHFCASCGCGTYSESPDWSTGKPDFDNPKVAVNARLFDDFDLDAVPVNMIDGKNLWLEHHHHHH", "soluble on expression in E. coli": "soluble"}
{"sequence": "MVNFTVDEIRALMDRKRNIRNMSVIAHVDHGKSTLTDSLVSKAGIIAGSKAGETRFTDTRKDEQERCITIKSTAISLFFELEKKDLEFVKGENQFETVEVDGKKEKYNGFLINLIDSPGHVDFSSEVTAALRVTDGALVVVDCVSGVCVQTETVLRQAIAERIKPVLFMNKMDRALLELQLGAEELFQTFQRIVENINVIIATYGDDDGPMGPIMVDPSIGNVGFGSGLHGWAFTLKQFAEMYAGKFGVQVDKLMKNLWGDRFFDLKTKKWSSTQTDESKRGFCQFVLDPIFMVFDAVMNIKKDKTAALVEKLGIKLANDEKDLEGKPLMKVFMRKWLPAGDTMLQMIAFHLPSPVTAQKYRMEMLYEGPHDDEAAVAIKTCDPNGPLMMYISKMVPTSDKGRFYAFGRVFSGKVATGMKARIQGPNYVPGKKEDLYEKTIQRTILMMGRFIEPIEDIPSGNIAGLVGVDQYLVKGGTITTYKDAHNMRVMKFSVSPVVRVAVEAKNPADLPKLVEGLKRLAKSDPMVQCIFEESGEHIIAGAGELHLEICLKDLEEDHACIPLKKSDPVVSYRETVQSESNQICLSKSPNKHNRLHCTAQPMPDGLADDIEGGTVNARDEFKARAKILAEKYEYDVTEARKIWCFGPDGTGPNLLMDVTKGVQYLNEIKDSVVAGFQWATREGVLSDENMRGVRFNVHDVTLHADAIHRGGGQIIPTARRVFYASVLTAEPRLLEPVYLVEIQCPEAAVGGIYGVLNRRRGHVFEESQVTGTPMFVVKAYLPVNESFGFTADLRSNTGGQAFPQCVFDHWQVLPGDPLEAGTKPNQIVLDTRKRKGLKEGVPALDNYLDKM", "soluble on expression in E. coli": "not soluble"}
{"sequence": "MVNQLIEPYGGTLVNLIDPEKREALKHEALSLPSLDLDWQQQCELEMLMTGAYSPLTGFMTRAQCARVESAQQLDDGSFWPSPITLTSRDRALADRRPGERLALRDGEGYMLAILTLSDVWKDGERWHLAGEVEGAALPPHPDFVSLRATPAELRALFVRRGWRRIIAWQARQPMHRAQYEFCLKSAIENEANLLLHPQVGGDITEAPAYFGLVRSFLAIRDRFPAATTQLSLLPAPPPEASGRALLLRAIVARNFGCSLLIAGGEHQPDGGDCRRGEDLTQNRVDPSVAERAEKIGVRLIAYPRMVYVEDRAEHLPEAEAPQGARLLTLSGEEFQRRMRAGLKIPEWYSFPEVLAELHRQTPPRERQGFTVFFTGLSGAGKSTLARALAARLMEMGGRCVTLLDGDIVRRHLSSELGFSKAHRDVNVRRIGFVASEITKNRGIAICAPIAPYRQTRRDVRAMIEAVGGFVEIHVATPIETCESRDRKGLYAKARAGLIPEFTGVSDPYEVPETPELAIDTTGLAIDEAVQQILLKLEHEGYLRLEHHHHHH", "soluble on expression in E. coli": "soluble"}
{"sequence": "MVPEVIEIDGKQWRLIWHDEFEGSEVNKEYWTFEKGNGIAYGIPGWGNGELEYYTENNTYIVNGTLVIEARKEIITDPNEGTFLYTSSRLKTEGKVEFSPPVVVEARIKLPKGKGLWPAFWMLGSNIREVGWPNCGEIDIMEFLGHEPRTIHGTVHGPGYSGSKGITRAYTLPEGVPDFTEDFHVFGIVWYPDKIKWYVDGTFYHEVTKEQVEAMGYEWVFDKPFYIILNLAVGGYWPGNPDATTPFPAKMVVDYVRVYSFVSG", "soluble on expression in E. coli": "soluble"}
{"sequence": "MVRGIRGAITVEEDTPEAIHQATRELLLKMLEANGIQSYEELAAVIFTVTEDLTSAFPAEAARQIGMHRVPLLSAREVPVPGSLPRVIRVLALWNTDTPQDRVRHVYLREAVRLRPDLESAQ", "soluble on expression in E. coli": "soluble"}
{"sequence": "MVRIYTLTLAPSLDSATITPQIYPEGKLRCSAPVFEPGGGGINVARAIAHLGGTATAIFPAGGATGEHLVALLADENVPVSTVDAKDWTRQNLHVHVESSGEQYRFVMPGATLDDDEFRQLEEQVLEIESGAILVISGSLPPGVKVEKLTQLISAAQKQGIRCIIDSSGDALTAALALGDIELVKPNLKELSALVNRDLTQPDDVRKAAQELVQSGKARRVVVSLGPQGALGIDSENCIQVVPPPVKSQSTVGAGDSMVGAMTLKLAQDASLEEMVRFGVAAGSAATLNQGTRLCSRDDTQKIYAYLSAQ", "soluble on expression in E. coli": "not soluble"}
{"sequence": "MVRLPPPTPPRKPNICGTSGNSNGINENIDTSTFSVSAAKALFESAKRPEVRNAAIAAAKNPFVRQTAKNVAQDEKARGAVLNAVKDPSGGNKISAAFAVADANRKSDSVPPPPPHRGGTSPGKLSGSHSAIRSQLENMHIGGSVMSSNSSTATPSYQSNSTSSYSSSAPVAPPPVPRHTQSIPSYSAPAISTPYGIAKFDYAPTQSDEMGLRIGDTVLISKKVDAEWFYGENQNQRTFGIVPSSYLDIKIPLKEAFTALPPRPAAPSGSSSGTYATAIYDYNSNEAGDLNFAVGSQIMVTARVNEEWLEGECFGRSGIFPSQFVDCPNLYQVPMKQSAPSSAPSYSHPITNNSGPKQTVTVSYDYDSGVASDLRLFEGDVITALEDIDAQWLLAECRGQQGMVPKTFLGPPYGSPKKAPSKGIAEIACAFSPKKAVATGDYHSEDPKHLYVTRGDHLLIVEDVDDYYYKGKLEAFKTLPAGILPKNIVKLEN", "soluble on expression in E. coli": "not soluble"}
{"sequence": "MVRNRFIRKMKKNLFKSNHLSYLKSKWKVKITGQIKMDFDNLLNLEEQYYQEGFLEGQNENIKQSFLEGKQYGLQVGFQRFTLLGQMEGLCDVIESYGLHSPTLEKNIHTIRTLMKGLKMNNDDESVMEFERVLIKLKNKFRTILITLHRLVKDKRTPTVTFEVFEDVSRAIAGEIRGFVENEDIAKNKTKQNQAQSW", "soluble on expression in E. coli": "soluble"}
{"sequence": "MVRRIAVFSLYNEHGIADDYVIFLLEKLREFVERIVVVSNGNLSKLSEIAIKASCDQLLVRENVGFDVWGYKTGIDAVGFDALSEYDELILLNDTCYGPLFPFSEMFSEMERRDCDFWGSAAHSKMTPNPFTGTGHLPRHLTANFIAVREKMLKSRAFKTYWENLPAIKTYIDAIMLHESQFTKHFTDLGYSAEAYVDPDKYGSHYPAFINVDETIINRFPLLKRRPFFHDPTFLNAQGIDLPRALRVLEETSDYDLNLIWRNVLRTSELRNLNTNAALMSVLPDERAKDDDAPSDYGKIAVCAHIYYTDMLEEILALTGNIPVPYDFIATTDTPDKKAEIEATLAKRPGVKNVIVRVVEKNRGRDMSSLFISLRDLLVDDRYDLVCRLHTKKSPQVQASRSNLFKRHMLENLLNTRGYVHNVLDMFHDNPSVGLAVPPVVHISYPTMGHAWFFNRPKVEETARLLNIKVKFDHDTPVAAYGTMFWFRPRALRKMFEHKWKWEDFNAEPNHVDGGLAHVLERLIAYAAQDAGYLEHHHHHH", "soluble on expression in E. coli": "soluble"}
{"sequence": "MVRVDQNLFNEVMYLLDELSQDITVPKNVRKVAQDSKAKLSQENESLDLRCATVLSMLDEMANDPNVPAHGRTDLYTIISKLEALSKS", "soluble on expression in E. coli": "not soluble"}
